Values quoted from earlier work in paper PMC2847435.

Columns and labels:
[1] = target: PDZ ligand peptide VKESLV
[2] = target: PDZ ligand peptide VKQSLL
[3] = target: Src pY527 tail pY527 tail (UniProt P12931)

Substance | Kd [1] [µM] | Kd [2] [µM] | Kd [3] [µM]
syntrophin PDZ domain PDZ (from UniProt Q61234) | 8 | 100 | –
Src SH2 domain SH2 (from UniProt P12931) | – | – | 29
